Earlier results, collected in patent publication US5576301A, “Low molecular growth potentiating peptides” (The Penn State Research Foundation, priority 1994, dated 1996).

B1: USDA bovine GH preparation: bovine growth hormone standard used in the tibial line bioassay (protein, UniProt P01246 27-217, looked up)
Somatotropin: AFPAMSLSGLFANAVLRAQHLHQLAADTFKEFERTYIPEGQRYSIQNTQVAFCFSETIPAPTGKNEAQQKSDLELLRISLLLIQSWLGPLQFLSRVFTNSLVFGTSDRVYEKLKDLEEGILALMRELEDGTPRAGQILKQTYDKFDTNMRSDDALLKNYGLLSCFRKDLHKTETYLRVMKCRRFGEASCAF

How the values were obtained:
[1] = system: tibial growth plate of hypophysectomized rats; conditions: hormone standard
[2] = comparison values
patients = patients treated with recombinant hGH

Molecule | potency of GH standard preparation [1] [IU/mg protein] | other results
Kabi hGH standard: human growth hormone standard obtained from Kabi Vitrum, Sweden | 3.0 | –
human monomeric growth hormone: monomeric 22K human growth hormone | – | pI [2]: 5.1-5.6
recombinant form of hGH: recombinant human growth hormone used in the United States to treat patients | – | patients treated that develop circulating antibodies (patients): 20~30%
B1 | 1.4 | –
